Source: US20240279278A1, “NMU RECEPTOR 2 AGONISTS” (Boehringer Ingelheim International GmbH, priority 2023, published 2024)

T1: human neuromedin U receptor 1 (human, UniProt Q9HB89 24-426)
T1 sequence (looked up): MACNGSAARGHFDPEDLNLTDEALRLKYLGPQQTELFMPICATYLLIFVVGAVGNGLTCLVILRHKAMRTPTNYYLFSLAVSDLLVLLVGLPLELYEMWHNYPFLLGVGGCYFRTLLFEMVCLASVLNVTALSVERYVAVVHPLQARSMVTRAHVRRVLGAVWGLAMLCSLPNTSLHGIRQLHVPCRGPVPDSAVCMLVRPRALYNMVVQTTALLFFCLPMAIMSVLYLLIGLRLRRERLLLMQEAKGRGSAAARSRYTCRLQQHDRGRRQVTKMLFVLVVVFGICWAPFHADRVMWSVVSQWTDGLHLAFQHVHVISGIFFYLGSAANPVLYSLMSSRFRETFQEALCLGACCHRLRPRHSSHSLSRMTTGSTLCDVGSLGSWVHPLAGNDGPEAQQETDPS


What follows are binders tested against T1, human neuromedin U receptor 1 (assay: cell-based or functional assay).

Row | EC50 (hNMUR1) buffer [nM] | Binder
1 | 1400 | EEEXXXXXXXXXXXXXXXXYFLXRARG (HELM PEPTIDE1{[O=C(O)CCCCCCCCCCCCCCCCCCC(=O)[*:2]].[gGlu].[gGlu].[gGlu].[Sar].[Sar].[Sar].[Sar].[Sar].[Sar].[Sar].[Sar].[Sar].[Sar].[Sar].[Sar].[Sar].[Sar].[Sar].[O=C(CN1CCN(CCN[*:1])CC1)[*:2]].Y.F.[meL].[Nle].[meR].[meA].R.G.[am]}$$$$V2.0; SMILES CCCC[C@H](NC(=O)[C@H](CC(C)C)N(C)C(=O)[C@H](Cc1ccccc1)NC(=O)[C@H](Cc1ccc(O)cc1)NC(=O)CN1CCN(CCNC(=O)CN(C)C(=O)CN(C)C(=O)CN(C)C(=O)CN(C)C(=O)CN(C)C(=O)CN(C)C(=O)CN(C)C(=O)CN(C)C(=O)CN(C)C(=O)CN(C)C(=O)CN(C)C(=O)CN(C)C(=O)CN(C)C(=O)CN(C)C(=O)CN(C)C(=O)CC[C@H](NC(=O)CC[C@H](NC(=O)CC[C@H](NC(=O)CCCCCCCCCCCCCCCCCCC(=O)O)C(=O)O)C(=O)O)C(=O)O)CC1)C(=O)N(C)[C@@H](CCCNC(=N)N)C(=O)N(C)[C@@H](C)C(=O)N[C@@H](CCCNC(=N)N)C(=O)NCC(N)=O) [C20DA-gGlu3-Sar15-AEPipAc-Tyr-Phe-NMeLeu-Nle-NMeArg-NMeAla-Arg-Gly-NH2]
2 | > 1000 | EEEXXXXXXXXXXXXXXXXYFLXXARG (HELM PEPTIDE1{[O=C(O)CCCCCCCCCCCCCCCCCCC(=O)[*:2]].[gGlu].[gGlu].[gGlu].[Sar].[Sar].[Sar].[Sar].[Sar].[Sar].[Sar].[Sar].[Sar].[Sar].[Sar].[Sar].[Sar].[Sar].[Sar].[O=C(CN1CCN(CCN[*:1])CC1)[*:2]].Y.F.[meL].[Nle].[Orn].[meA].R.G.[am]}$$$$V2.0; SMILES CCCC[C@H](NC(=O)[C@H](CC(C)C)N(C)C(=O)[C@H](Cc1ccccc1)NC(=O)[C@H](Cc1ccc(O)cc1)NC(=O)CN1CCN(CCNC(=O)CN(C)C(=O)CN(C)C(=O)CN(C)C(=O)CN(C)C(=O)CN(C)C(=O)CN(C)C(=O)CN(C)C(=O)CN(C)C(=O)CN(C)C(=O)CN(C)C(=O)CN(C)C(=O)CN(C)C(=O)CN(C)C(=O)CN(C)C(=O)CN(C)C(=O)CC[C@H](NC(=O)CC[C@H](NC(=O)CC[C@H](NC(=O)CCCCCCCCCCCCCCCCCCC(=O)O)C(=O)O)C(=O)O)C(=O)O)CC1)C(=O)N[C@@H](CCCN)C(=O)N(C)[C@@H](C)C(=O)N[C@@H](CCCNC(=N)N)C(=O)NCC(N)=O) [C20DA-gGlu3-Sar15-AEPipAc-Tyr-Phe-NMeLeu-Nle-Orn-NMeAla-Arg-Gly-NH2]
3 | 190 | EEEXXXXXXXXXXXXXYFLXRPRG (HELM PEPTIDE1{[O=C(O)CCCCCCCCCCCCCCCCC(=O)[*:2]].[gGlu].[gGlu].[gGlu].[Sar].[Sar].[Sar].[Sar].[Sar].[Sar].[Sar].[Sar].[Sar].[Sar].[Sar].[Sar].[O=C(CN1CCN(CCN[*:1])CC1)[*:2]].Y.F.[meL].[Nle].[meR].P.R.G.[am]}$$$$V2.0; SMILES CCCC[C@H](NC(=O)[C@H](CC(C)C)N(C)C(=O)[C@H](Cc1ccccc1)NC(=O)[C@H](Cc1ccc(O)cc1)NC(=O)CN1CCN(CCNC(=O)CN(C)C(=O)CN(C)C(=O)CN(C)C(=O)CN(C)C(=O)CN(C)C(=O)CN(C)C(=O)CN(C)C(=O)CN(C)C(=O)CN(C)C(=O)CN(C)C(=O)CN(C)C(=O)CN(C)C(=O)CC[C@H](NC(=O)CC[C@H](NC(=O)CC[C@H](NC(=O)CCCCCCCCCCCCCCCCC(=O)O)C(=O)O)C(=O)O)C(=O)O)CC1)C(=O)N(C)[C@@H](CCCNC(=N)N)C(=O)N1CCC[C@H]1C(=O)N[C@@H](CCCNC(=N)N)C(=O)NCC(N)=O) [C18DA-gGlu3-Sar12-AEPipAc-Tyr-Phe-NMeLeu-Nle-NMeArg-Pro-Arg-Gly-NH2]
